# Laboratory results as given in patent publication US20210388081A1 (Memorial Sloan Kettering, published 2021).
# T1: FcRL6, overexpressed on 3T3 cells (UniProt Q6DN72 20-434, limits assumed)
# T1 construct: whole, on cells
# T1 sequence (looked up): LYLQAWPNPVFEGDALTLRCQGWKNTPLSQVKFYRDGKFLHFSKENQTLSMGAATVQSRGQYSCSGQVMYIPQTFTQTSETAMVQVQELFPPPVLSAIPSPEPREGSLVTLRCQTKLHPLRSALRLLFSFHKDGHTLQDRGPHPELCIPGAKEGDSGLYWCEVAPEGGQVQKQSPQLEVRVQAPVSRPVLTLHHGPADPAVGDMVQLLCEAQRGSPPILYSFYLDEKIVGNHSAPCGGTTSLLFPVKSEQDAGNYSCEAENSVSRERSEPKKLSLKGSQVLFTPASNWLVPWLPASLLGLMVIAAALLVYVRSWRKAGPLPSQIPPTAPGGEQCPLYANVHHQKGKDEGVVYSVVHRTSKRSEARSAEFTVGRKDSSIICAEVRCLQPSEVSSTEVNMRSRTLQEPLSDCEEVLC
# T2: FcRL1, overexpressed on 3T3 cells (UniProt Q96LA6 17-429, limits assumed)
# T2 construct: whole, on cells
# T2 sequence (looked up): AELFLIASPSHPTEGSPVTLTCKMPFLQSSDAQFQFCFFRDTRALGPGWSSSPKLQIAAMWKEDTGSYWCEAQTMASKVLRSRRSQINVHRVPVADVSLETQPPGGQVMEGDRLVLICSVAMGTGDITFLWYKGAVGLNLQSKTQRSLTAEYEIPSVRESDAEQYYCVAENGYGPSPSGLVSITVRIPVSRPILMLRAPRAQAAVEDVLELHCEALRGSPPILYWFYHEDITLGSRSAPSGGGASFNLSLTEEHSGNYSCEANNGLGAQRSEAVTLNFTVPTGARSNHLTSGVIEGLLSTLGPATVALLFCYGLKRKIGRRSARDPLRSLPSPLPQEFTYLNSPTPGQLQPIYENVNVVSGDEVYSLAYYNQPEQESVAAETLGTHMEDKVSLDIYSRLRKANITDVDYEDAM
# B1: ET200-009 (scFv)
# scFv: QSVLTQPPSASGTPGQTVTISCSGSNSNIGSNYVYWYQQLPGTAPKLLIYRNNQRPSGVPDRFSGSKSGTSASLAISGLRSEDEADYYCAAWDDSLSAYVFGTGTKVTVLGSRGGGGSGGGGSGGGGSLEMAQVQLVQSGAEVKKPGASVKVSCKASGYTFTSYGISWVRQAPGQGLEWMGWISAYNGNTNYAQKLQGRVTMTTDTSTSTAYMELRSLRSDDTAVYYCARSSGNMVSWKDMWGQGTLVTVSSTSGQAGQHHHHHHGAYPYDVPDYAS
# notes: screened as phage clone; entry is VL-linker-VH-His tag-HA tag
# B2: ET200-005 (scFv)
# scFv: QPVLTQPPSVSVVPGKTARITCGGKNIGSKSVHWYQQKPGQAPVVVIHYDSDRPSGIPERFSGSNSGNTATLTISRVEAGDEADYYCQVWDSSSDHPYVFGTGTKVTVLGSRGGGGSGGGGSGGGGSLEMAQVQLVQSGAEVKKPGASVKVSCKASGYTFTNYGISWVRQAPGQGLEWMGWISAYNGNTNYAHKLQGRVTMTTDTSTSTANMELRSLRPDDTAVYYCARSYFGSHDYWGQGTLVTVSSTSGQAGQHHHHHHGAYPYDVPDYAS
# notes: as for B1
# B3: ET200-116 (scFv)
# scFv: QPVLTQPPSVSVSPGQTAAIPCSGDKLGDKFASWYQQKPGQSPVLVIYQDTKRPSGIPERFSGSNSGNTATLTISGTQAMDEADYYCQTWASGIVVFGGGTKLTVLGSRGGGGSGGGGSGGGGSLEMAQVQLQQSGPGLVKPSQTLSLTCAISGDSVSSNSAAWNWIRQSPSRGLEWLGRTYYRSKWYNDYAVSVKSRITINPDTSKNQFSLQLNSVTPEDTAVYYCARERSGWKGFDYWGQGTLVTVSSTSGQAGQHHHHHHGAYPYDVPDYAS
# notes: as for B1
# B4: ET200-123 (scFv)
# scFv: QAVLTQPPSASGTPGQRVTISCSGSSSNIGSNTVNWYQQLPGTAPKLLMYNNDQRPSGVPDRFSGSKSGTSASLAISGLQSEDEADYYCAAWDDSLNGYVFGPGTKVTVLGSRGGGGSGGGGSGGGGSLEMAQVQLVESGAEVKKPGASVKVSCKASGYTFTSYGISWVRQAPGQGLEWMGWISAYNGNTNYAQKLQGRVTMTTDTSTSTAYMELRSLRSDDTAVYYCARDLSRGANPHYYYYYGMDVWGQGTTVTVSSTSGQAGQHHHHHHGAYPYDVPDYAS
# notes: as for B1
# B5: ET200-121 (scFv)
# scFv: QSVLTQPPSVSGAPGQRVTVSCTGSRSNIGAGYDVHWYQQLPGTAPKLLIYGNSNRPPGVPDRFSGSKSGTSASLVITGLQAEDAADYYCQSYDNTVRESPYVFGTGTKVTVLGSRGGGGSGGGGSGGGGSLEMAEVQLVQSGAEVKKPGASVKVSCKVSGYTLTELSMHWVRQAPGKGLEWMGGFDPEDGETIYAQKFQGRVTMTEDTSTDTAYMELSSLRSEDTAVYYCATESNLVSRHYYYYGMDVWGQGTTVTVSSTSGQAGQHHHHHHGAYPYDVPDYAS
# notes: as for B1
# B6: ET200-010 (scFv)
# scFv: QSALTQPASVSGSPGQSITISCTGTSSDVGGYNSVSWYQQHPGKAPRLMIYDVSNRPSGVSNRFSGSKSGNTASLTISGLQAEDEADYYCSSYTSSSTPLVFGTGTKVTVLGSRGGGGSGGGGSGGGGSLEMAQVQLVQSGAEVKKPGASVKVSCKASGYTFTSYGISWVRQAPGQGLEWMGWISAYNGNTNYAQKLQGRVTMTTDTSTSTAYMELRSLRSDDTAVYYCARGAVAYHDWGQGTLVTVSSTSGQAGQHHHHHHGAYPYDVPDYAS
# notes: as for B1
# B7: ET200-118 (scFv)
# scFv: QAVLTQPASVSGSPGQSITISCTGTSSDVGGYNYVSWYQQHPGKAPKLMIYEVSNRPSGVSNRFSGSKSGNTASLTISGLQAEDEADYYCSSYTSSSTPYVFGAGTKVTVLGSRGGGGSGGGGSGGGGSLEMAEVQLVESGGGLVQPGRSLRLSCAASGFTFDDYAMHWVRQAPGKGLEWVSGISWNSGSIGYADSVKGRFTISRDNAKNSLYLQMNSLRAEDTALYYCAKARWTAVASDHHFDYWGQGTLVTVSSTSGQAGQHHHHHHGAYPYDVPDYAS
# notes: as for B1
# B8: ET200-124 (scFv)
# scFv: SYVLTQPPSVSVAPGKTARISCGGNDIGSKSVFWYQQRPGQAPVLVVYDDSDRPSGLPERFSGFNSGNTATLTISRVEAGDEADYYCQVWDSSSDHYVFGTGTKVTVLGSRGGGGSGGGGSGGGGSLEMAQVQLVESGGGLVQPGRSLRLSCAASGFTFDDYAMHWVRQAPGKGLEWVSGISWNSGSIGYADSVKGRFTISRDNAKNSLYLQMNSLRAEDTALYYCAKDITYGSGSYGAFDIWGQGTMVTVSSTSGQAGQHHHHHHGAYPYDVPDYAS
# notes: as for B1
# B9: ET200-008 (scFv)
# scFv: QSALTQPASVSGSPGQSITISCTGTSSDVGGYNYVSWYQQHPGKAPKLMIYDVSNRPSGVSNRFSGSKSGNTASLTISGLQAEDEADYYCSSYTSSSTSKVFGGGTKLTVLGSRGGGGSGGGGSGGGGSLEMAEVQLVESGGGVVRPGGSLRLSCAASGFTFGDYGMSWVRQAPGKGLEWVSGINWNGGSTGYADSVKGRFTISRDNAKNSLYLQMNSLRAEDTAVYYCARSKYNFHVYYDYWGQGTLVTVSSTSGQAGQHHHHHHGAYPYDVPDYAS
# notes: as for B1
# B10: ET200-125 (scFv)
# scFv: NFMLTQPHAVSESPGKTVTISCTRSSGSIASNYVQWYQQRPGSSPRTVIYEDNQRPSGVPGRFSGSIDSSSNSASLTISGLKTEDEADYYCQSYDSTSVLFGGGTKLTVLGSRGGGGSGGGGSGGGGSLEMAEVQLVQSGAEVKKPGSSVKVSCKASGGTFSSNSLSWVRQAPGQGLEWMGRIFPILGITNYAQKFQGRVTITADKSTSTAYMELSSLRSEDTAVYYCARGNYQWYDAFDIWGQGTMVTVSSTSGQAGQHHHHHHGAYPYDVPDYAS
# notes: as for B1
# Target: T1, FcRL6, overexpressed on 3T3 cells
# Experiment: phage clone on 3T3-FcRL6 cells
row,Binder,binding result
1,B1,no binding
2,B2,no binding
3,B3,no binding
4,B4,no binding
5,B5,no binding
6,B6,no binding
7,B7,no binding
8,B8,no binding
9,B9,no binding
10,B10,no binding

# Target: T2, FcRL1, overexpressed on 3T3 cells
# Experiment: phage clone on 3T3-FcRL1 cells
row,Binder,binding result
1,B1,no binding
2,B2,no binding
3,B3,no binding
4,B4,no binding
5,B5,no binding
6,B6,no binding
7,B7,no binding
8,B8,no binding
9,B9,no binding
10,B10,no binding

# Target: SLAMF9 protein (UniProt Q96A28 19-236, limits assumed)
# Experiment: phage clone on SLAMF9 protein
# Sequence of SLAMF9 protein (Q96A28 19-236 limits assumed): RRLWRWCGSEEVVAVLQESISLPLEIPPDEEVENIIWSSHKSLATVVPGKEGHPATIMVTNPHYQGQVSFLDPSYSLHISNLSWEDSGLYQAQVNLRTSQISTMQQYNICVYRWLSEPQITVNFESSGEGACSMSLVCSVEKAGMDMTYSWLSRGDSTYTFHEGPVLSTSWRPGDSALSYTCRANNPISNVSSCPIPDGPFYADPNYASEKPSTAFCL
row,Binder,binding result
1,B1,no binding
2,B2,no binding
3,B3,no binding
4,B4,no binding
5,B5,no binding
6,B6,no binding
7,B7,no binding
8,B8,no binding
9,B9,no binding
10,B10,no binding
